Light-evoked second messenger (cAMP) plate reader assay in transfected HEK293 cells, G-protein subtype profile of bovine rhodopsin (Supplementary Figure S5) data for one substance are collected here from article PMC10014536.

The assay has as its target bovine rhodopsin (bovine) (UniProt P02699).
Chain of UniProt P02699 (P02699 whole entry): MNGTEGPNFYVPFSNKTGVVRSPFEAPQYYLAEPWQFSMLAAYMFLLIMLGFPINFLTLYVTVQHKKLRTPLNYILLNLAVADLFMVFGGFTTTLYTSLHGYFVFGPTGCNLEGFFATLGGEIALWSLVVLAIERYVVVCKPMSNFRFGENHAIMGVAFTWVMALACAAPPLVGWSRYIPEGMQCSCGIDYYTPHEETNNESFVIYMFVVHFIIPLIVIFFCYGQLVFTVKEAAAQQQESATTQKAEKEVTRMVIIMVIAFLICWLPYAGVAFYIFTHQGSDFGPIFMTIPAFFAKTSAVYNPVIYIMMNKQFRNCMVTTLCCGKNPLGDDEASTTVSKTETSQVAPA

In the case of Gso (Gs subunit chimera with a Go tail), the light-evoked second messenger (cAMP) plate reader assay in transfected HEK293 cells, G-protein subtype profile of bovine rhodopsin (Supplementary Figure S5) came to 10%.
